This sample holds only a part of the variants without activity.
B1: glmS ribozyme (parent)
chain: AUAAAAGCGCCAGAACUACAGAAAUGUAGUUGACGAGGAGGAGGUUUAUCGAAUUUUCGGCGGAUGCCUCCAAA

How the values were obtained:
Details in all cases: with glucosamine-6-phosphate
glucosamine-6-phosphate [1] = variants of: B1; test: self-cleavage kobs at 160 uM GlcN6P; higher = faster cleavage; RNA array
Summary of the method: (§1)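 The measurements used barcoded ribozyme variants on sequenced MiSeq chips, transcribed in situ by E. coli RNA polymerase and tracked at 37 °C with a hybridised Cy3 probe. Glucosamine-6-phosphate, 40 μM to 10 mM in HEPES/KCl/Mg(OAc)2 buffer, was flowed in while tiles were imaged over ~14 h. Baseline-normalised signals, also normalised to non-cleaving reference variants, gave per-tile medians that were fit to one- or two-exponential decays for kobs. kcat and KM resulted from weighted Michaelis–Menten fits across concentrations.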

glucosamine-6-phosphate [2] = variants of: B1; test: self-cleavage kobs at 2500 uM GlcN6P; higher = faster cleavage; RNA array
Summary of the method: as §1

glucosamine-6-phosphate [3] = variants of: B1; test: self-cleavage kobs at 640 uM GlcN6P; higher = faster cleavage; RNA array
Summary of the method: as §1

glucosamine-6-phosphate [4] = variants of: B1; test: self-cleavage kobs at 10000 uM GlcN6P; higher = faster cleavage; RNA array
Summary of the method: as §1

Row | Variant | self-cleavage kobs at 160 uM GlcN6P (glucosamine-6-phosphate [1]) [s⁻¹] | self-cleavage kobs at 2500 uM GlcN6P (glucosamine-6-phosphate [2]) [s⁻¹] | self-cleavage kobs at 640 uM GlcN6P (glucosamine-6-phosphate [3]) [s⁻¹] | self-cleavage kobs at 10000 uM GlcN6P (glucosamine-6-phosphate [4]) [s⁻¹]
1 | AUAAAACCGCCAUAACUACAGAAAUGUAGUUGACGCGGAGGAGGUUUAUCGAAUUUUCGGCGGAUGCAUCCAAA [G7C G13U A36C C68A] | < 1e-05 | < 1e-05 | – | –
2 | AUAAAACCGCCAGAACUACAGAAAUGUAGUUUACGUGGAUGUGGUUUAUCGGAUUUUCGGCGGAUGCCUCCAAA [G7C G32U A36U G40U A42U A52G] | < 1e-05 | < 1e-05 | < 1e-05 | –
3 | AUAAAAACGCCAGAACUACAGAAAUGUAGCUGACGAGGAGGAGGUUUAUCGAAUUUUCGUCGGCUGCCUCCAAA [G7A U30C G60U A64C] | < 1e-05 | < 1e-05 | – | –
4 | AUAAAACCGCCGGAACUACAGAAAUGUAGUUGUCGAGGAGGAGGUUUAUCUAAUUUUCGGCGGAUGCCUCCAAA [G7C A12G A33U G51U] | < 1e-05 | – | – | –
5 | AUAAAACCGCCAGAACUACAGAAAUGUAGUUGACGGGGGGGAGGUUUAUCGAAUUUUCGGCGGAUGUCUCCAAA [G7C A36G A39G C67U] | < 1e-05 | < 1e-05 | < 1e-05 | –
6 | AUAAAACCGCCACAACUACAGAAAUGUAGUUGACGAGGAGGAGGUUUGUCGAAUUUUCGGCGGAUGCCUACAAA [G7C G13C A48G C70A] | < 1e-05 | < 1e-05 | < 1e-05 | –
7 | AUAAAAACGCCAGAACUACAGAAAUGUAGUUGACGAGGAGGAGGUUUAUCGAAUUUUCCGCGGAUGCCUCCAAA [G7A G59C] | < 1e-05 | – | < 1e-05 | –
8 | AUAAAAACGCCAGAACUACAGAAAUGUAGUUGACGAGGAGGAGGUUUAUCGAACUUUCGGCGGAGGUCUCCAAA [G7A U54C U65G C67U] | < 1e-05 | < 1e-05 | < 1e-05 | –
9 | AUAAAACUGCCAGAGCUACAGAAAUGUAGUUGACAAGGAGGAGGUUUAUCGAAUUUUCGGCGGAUGCCUCCAAA [G7C C8U A15G G35A] | < 1e-05 | < 1e-05 | – | –
10 | AUAAAACCGCCAGAACUACAGAAAUGUAGUUGACGAGGAGGAGGGUUAUCGAAUUUUCAGCGGAUGCCUCCAAA [G7C U45G G59A] | < 1e-05 | < 1e-05 | < 1e-05 | < 1e-05
11 | AUAAAACCGCCAGAACUACAGAAAUGUAGUUGACGAGGAGGAGGAUUAUCGAAUUUUCGGCGGAUGCCUCCAAA [G7C U45A] | < 1e-05 | < 1e-05 | < 1e-05 | < 1e-05
12 | AUAAAACCGCCAGAACUACAGAAAUGUAGUUCACGAGGAGUAGGUUGAUCGAAUUCUCGGCGGAUGCCUCCAAA [G7C G32C G41U U47G U56C] | < 1e-05 | < 1e-05 | < 1e-05 | –
13 | AUAAAACCGCCAGAACUACAGAAAUGUAGUUGACGAGGAGGAGGUUUAUCGAAUAUUCGGCGGUUGCCUCCAAA [G7C U55A A64U] | < 1e-05 | < 1e-05 | < 1e-05 | –
14 | AUAAAACCGCCAGAAGUACAGAAAUGUAGUUGACGAGGAGGAGGUUUAUCGAAUUUUCGGCGGAUGCCUCCAAA [G7C C16G] | < 1e-05 | – | < 1e-05 | < 1e-05

From the supplement of paper PMC7125110
